Assay results taken from publication PMC3656124, “DNA Topoisomerase II Is Involved in Regulation of Cyst Wall Protein Genes and Differentiation in Giardia lamblia” (PLoS Neglected Tropical Diseases, 2013).

Tests used:
Topo II = target: T1, Topo II (Giardia lamblia, UniProt E2RU90 1-1491); test: EMSA; EMSA: 0.02 pmol 5'-labeled probe, 5 ng protein, 20 ul, 0.5 ug poly(dI-dC), 15 min, room temperature, 6% acrylamide gel; buffer, salt and pH only by citation; settings: protein: recombinant; tags: C-terminal V5-His; chain copies: 2; label: 5'-32P
T1 sequence: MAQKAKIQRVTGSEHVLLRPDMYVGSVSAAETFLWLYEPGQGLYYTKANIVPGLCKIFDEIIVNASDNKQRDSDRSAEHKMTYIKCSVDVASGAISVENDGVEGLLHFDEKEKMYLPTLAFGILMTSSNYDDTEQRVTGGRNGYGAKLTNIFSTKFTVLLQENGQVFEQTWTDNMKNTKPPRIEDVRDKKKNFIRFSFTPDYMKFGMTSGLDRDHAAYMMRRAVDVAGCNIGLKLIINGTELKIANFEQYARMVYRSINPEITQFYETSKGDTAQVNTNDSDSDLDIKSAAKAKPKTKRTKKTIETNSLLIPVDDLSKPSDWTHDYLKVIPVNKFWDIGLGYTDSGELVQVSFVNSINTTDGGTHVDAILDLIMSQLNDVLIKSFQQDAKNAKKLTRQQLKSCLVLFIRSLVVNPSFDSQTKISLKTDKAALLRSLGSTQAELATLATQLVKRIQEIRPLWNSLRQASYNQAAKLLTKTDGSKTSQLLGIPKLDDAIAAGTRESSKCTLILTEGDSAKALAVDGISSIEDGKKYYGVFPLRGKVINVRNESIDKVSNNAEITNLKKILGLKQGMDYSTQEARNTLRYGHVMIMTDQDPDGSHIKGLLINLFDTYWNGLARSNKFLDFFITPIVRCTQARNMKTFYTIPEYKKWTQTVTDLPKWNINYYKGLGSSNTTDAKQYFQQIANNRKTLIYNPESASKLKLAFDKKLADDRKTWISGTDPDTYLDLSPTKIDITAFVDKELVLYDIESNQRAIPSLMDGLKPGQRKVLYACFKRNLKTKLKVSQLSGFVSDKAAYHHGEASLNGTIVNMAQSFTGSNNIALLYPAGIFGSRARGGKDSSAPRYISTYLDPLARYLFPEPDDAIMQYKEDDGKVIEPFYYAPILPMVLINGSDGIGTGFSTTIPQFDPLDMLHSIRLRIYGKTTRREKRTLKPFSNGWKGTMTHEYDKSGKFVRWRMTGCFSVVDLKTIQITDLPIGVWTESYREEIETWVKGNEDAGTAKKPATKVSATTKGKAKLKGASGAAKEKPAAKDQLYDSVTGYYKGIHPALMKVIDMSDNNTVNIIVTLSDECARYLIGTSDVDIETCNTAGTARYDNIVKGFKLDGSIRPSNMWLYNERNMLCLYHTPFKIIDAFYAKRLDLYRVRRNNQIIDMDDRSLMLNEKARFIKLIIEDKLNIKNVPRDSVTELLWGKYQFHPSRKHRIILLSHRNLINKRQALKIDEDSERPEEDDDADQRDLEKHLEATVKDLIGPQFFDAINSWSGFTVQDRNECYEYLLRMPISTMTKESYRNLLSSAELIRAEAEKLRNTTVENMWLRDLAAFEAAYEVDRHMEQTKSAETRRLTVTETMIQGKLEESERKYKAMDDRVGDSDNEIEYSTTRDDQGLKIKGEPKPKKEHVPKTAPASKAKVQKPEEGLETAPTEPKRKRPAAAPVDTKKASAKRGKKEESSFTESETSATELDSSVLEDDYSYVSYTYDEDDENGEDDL

Topo IIC = target: T2, Topo IIC (Giardia lamblia, UniProt E2RU90 489-1491); test: as above; settings: protein: recombinant; tags: C-terminal V5-His; chain copies: 2; label: 5'-32P
T2 sequence: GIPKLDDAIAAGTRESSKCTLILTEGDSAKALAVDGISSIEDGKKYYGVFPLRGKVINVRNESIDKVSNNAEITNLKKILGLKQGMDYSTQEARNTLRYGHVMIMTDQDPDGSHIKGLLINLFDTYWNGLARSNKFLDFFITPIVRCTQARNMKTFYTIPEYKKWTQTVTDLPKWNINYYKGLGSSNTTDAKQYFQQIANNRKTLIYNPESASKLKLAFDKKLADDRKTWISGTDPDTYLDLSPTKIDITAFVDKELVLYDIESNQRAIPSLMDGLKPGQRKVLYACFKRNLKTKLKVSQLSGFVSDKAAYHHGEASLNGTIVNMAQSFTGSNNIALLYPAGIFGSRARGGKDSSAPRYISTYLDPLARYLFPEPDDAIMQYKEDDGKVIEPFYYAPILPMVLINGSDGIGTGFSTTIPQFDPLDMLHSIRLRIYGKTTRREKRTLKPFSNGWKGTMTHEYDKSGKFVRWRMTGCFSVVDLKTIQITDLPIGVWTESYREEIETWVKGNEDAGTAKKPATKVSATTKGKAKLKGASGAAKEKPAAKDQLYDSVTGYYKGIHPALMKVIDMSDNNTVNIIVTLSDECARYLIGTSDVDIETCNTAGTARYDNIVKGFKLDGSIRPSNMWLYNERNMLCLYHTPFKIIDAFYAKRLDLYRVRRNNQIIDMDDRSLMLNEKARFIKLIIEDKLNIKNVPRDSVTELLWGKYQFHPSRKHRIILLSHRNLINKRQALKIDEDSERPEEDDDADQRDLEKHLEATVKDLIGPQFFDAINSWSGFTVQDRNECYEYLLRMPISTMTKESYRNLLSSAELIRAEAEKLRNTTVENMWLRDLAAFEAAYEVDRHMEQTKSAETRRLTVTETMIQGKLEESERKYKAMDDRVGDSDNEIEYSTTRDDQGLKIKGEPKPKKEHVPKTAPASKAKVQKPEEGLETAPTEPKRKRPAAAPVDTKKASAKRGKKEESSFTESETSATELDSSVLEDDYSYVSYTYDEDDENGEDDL

B1: IIBS (dsDNA)
DNA 1: ATGAAATCTAACAATGCGCTCATCGTCATCCTCGGC
DNA 2: GCCGAGGATGACGATGAGCGCATTGTTAGATTTCAT
Topo II
  binding result: binds
Topo IIC
  binding result: binds
